The values that follow come from US20140072613A1, “Compositions and Methods for Treating Cutaneous Scarring” (priority 2012, published 2014).

Some targets named below: CaMKIV(h) (human) (UniProt Q16566); Met(D1246H)(h) (human) (UniProt P08581); HIPK3(h) (human) (UniProt Q9H422); PKGη(h) (human); EphB2(h) (human) (UniProt P29323); PKBγ(h) (human) (UniProt Q9Y243); PKBβ(h) (human) (UniProt P31751); PAR-1Bα(h) (human) (UniProt Q7KZI7); AMPKα1(h) (human) (UniProt Q13131); cKit(D816V)(h) (human) (UniProt P10721); cKit(h) (human) (UniProt P10721); HIPK2(h) (human) (UniProt Q9H2X6); Lyn(h) (human) (UniProt P07948); IRR(h) (human) (UniProt P14616); Pim-3(h) (human) (UniProt Q86V86); Met(Y1248D)(h) (human) (UniProt P08581); EGFR(L861Q)(h) (human) (UniProt P00533); MuSK(h) (human) (UniProt O15146); MSSK1(h) (human) (UniProt Q9UPE1).

Assay in all cases: cell-based or functional assay
The target in another experiment is T1, Flt1(h) (human) (UniProt P17948).
T1 sequence (looked up): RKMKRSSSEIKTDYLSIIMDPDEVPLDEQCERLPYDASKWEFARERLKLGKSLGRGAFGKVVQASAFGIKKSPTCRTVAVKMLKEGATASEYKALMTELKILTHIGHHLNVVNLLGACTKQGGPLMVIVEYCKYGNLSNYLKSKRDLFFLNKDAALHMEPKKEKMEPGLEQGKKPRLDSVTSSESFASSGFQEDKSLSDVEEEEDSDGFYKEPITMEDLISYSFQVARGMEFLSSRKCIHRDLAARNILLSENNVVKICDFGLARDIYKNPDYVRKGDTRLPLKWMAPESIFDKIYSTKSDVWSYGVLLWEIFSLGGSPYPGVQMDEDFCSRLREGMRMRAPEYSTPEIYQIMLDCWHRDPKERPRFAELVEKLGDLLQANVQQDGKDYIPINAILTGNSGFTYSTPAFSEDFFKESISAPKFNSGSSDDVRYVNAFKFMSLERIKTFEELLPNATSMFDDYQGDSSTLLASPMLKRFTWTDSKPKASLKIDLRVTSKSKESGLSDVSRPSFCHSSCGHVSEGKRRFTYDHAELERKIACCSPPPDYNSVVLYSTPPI

The next experiment has as its target T2, GCK(h) (human) (UniProt Q12851).
T2 sequence (looked up): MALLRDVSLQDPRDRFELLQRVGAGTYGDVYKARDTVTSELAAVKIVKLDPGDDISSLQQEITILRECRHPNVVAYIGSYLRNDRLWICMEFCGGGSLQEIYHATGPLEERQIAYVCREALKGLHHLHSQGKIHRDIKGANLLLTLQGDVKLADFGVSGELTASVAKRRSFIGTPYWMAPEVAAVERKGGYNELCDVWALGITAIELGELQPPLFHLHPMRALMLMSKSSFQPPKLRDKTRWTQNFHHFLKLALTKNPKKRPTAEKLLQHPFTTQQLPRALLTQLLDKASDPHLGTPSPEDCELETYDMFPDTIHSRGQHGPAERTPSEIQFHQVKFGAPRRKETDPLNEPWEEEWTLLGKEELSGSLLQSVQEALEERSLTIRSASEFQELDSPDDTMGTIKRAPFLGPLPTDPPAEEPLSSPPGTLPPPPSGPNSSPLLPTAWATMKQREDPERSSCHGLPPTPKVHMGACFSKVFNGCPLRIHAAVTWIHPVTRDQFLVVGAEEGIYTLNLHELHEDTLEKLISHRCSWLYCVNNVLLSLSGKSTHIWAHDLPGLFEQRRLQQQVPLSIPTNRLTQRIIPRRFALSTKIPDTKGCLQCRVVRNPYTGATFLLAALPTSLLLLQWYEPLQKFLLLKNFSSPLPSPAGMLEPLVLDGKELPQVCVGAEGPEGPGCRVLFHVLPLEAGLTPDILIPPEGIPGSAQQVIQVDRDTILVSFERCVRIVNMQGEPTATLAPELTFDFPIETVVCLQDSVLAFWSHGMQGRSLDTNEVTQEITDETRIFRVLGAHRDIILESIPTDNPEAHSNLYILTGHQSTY

The target of experiment [1] is CDK9/cyclin T1(h) (human) (UniProt P50750).
The next experiment addresses T3, PrKX(h) (human) (UniProt P51817).
T3 sequence (looked up): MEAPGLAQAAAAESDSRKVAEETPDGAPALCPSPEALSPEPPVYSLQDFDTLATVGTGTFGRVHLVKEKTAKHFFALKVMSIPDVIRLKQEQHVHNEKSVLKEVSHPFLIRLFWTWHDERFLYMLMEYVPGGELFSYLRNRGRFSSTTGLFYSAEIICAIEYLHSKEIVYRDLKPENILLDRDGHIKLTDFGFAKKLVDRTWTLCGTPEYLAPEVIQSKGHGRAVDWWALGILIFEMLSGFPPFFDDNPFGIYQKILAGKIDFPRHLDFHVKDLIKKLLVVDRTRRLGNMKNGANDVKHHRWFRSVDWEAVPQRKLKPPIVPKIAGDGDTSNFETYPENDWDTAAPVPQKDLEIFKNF

Sequence of Lyn(h) (human) (P07948 whole entry): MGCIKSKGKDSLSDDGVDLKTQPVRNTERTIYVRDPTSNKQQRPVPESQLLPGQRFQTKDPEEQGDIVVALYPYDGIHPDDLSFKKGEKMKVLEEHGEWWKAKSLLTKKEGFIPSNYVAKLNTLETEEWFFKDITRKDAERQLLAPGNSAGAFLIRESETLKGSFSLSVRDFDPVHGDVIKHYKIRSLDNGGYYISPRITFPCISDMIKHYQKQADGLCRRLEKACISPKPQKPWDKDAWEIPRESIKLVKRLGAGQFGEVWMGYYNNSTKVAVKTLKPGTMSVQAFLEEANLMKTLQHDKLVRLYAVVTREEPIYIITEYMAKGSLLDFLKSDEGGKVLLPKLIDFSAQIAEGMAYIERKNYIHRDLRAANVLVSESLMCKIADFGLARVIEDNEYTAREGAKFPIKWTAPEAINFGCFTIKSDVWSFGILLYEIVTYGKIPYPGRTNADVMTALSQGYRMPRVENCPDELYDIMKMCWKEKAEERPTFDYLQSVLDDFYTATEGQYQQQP
Sequence of AMPKα1(h) (human) (Q13131 whole entry): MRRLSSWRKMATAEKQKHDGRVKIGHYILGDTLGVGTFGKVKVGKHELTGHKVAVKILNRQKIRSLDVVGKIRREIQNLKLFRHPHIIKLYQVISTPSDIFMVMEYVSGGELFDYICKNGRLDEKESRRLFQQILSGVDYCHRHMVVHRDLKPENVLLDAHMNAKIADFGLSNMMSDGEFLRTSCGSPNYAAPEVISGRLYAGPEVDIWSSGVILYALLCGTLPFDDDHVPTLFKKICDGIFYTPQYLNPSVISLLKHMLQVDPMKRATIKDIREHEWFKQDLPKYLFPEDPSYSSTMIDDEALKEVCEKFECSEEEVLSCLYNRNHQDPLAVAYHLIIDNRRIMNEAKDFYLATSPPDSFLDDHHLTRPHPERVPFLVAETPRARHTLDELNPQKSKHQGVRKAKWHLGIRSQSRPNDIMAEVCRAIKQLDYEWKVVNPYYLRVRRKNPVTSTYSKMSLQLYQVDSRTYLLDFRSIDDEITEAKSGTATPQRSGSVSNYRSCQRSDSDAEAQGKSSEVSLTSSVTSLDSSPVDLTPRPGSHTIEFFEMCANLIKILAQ
Sequence of PKBγ(h) (human) (Q9Y243 whole entry): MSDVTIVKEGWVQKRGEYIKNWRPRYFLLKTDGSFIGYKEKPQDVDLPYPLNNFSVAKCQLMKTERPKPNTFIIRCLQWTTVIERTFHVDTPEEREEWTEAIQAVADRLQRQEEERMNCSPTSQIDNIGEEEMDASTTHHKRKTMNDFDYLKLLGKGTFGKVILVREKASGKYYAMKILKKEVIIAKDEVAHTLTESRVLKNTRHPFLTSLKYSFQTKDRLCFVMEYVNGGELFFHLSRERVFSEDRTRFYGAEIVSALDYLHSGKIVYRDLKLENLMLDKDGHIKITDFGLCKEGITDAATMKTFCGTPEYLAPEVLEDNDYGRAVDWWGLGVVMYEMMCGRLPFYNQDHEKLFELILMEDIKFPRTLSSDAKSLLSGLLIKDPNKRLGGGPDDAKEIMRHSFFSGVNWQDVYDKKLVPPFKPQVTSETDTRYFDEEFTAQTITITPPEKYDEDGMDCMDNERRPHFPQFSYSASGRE
Sequence of IRR(h) (human) (P14616 960-1297 limits assumed): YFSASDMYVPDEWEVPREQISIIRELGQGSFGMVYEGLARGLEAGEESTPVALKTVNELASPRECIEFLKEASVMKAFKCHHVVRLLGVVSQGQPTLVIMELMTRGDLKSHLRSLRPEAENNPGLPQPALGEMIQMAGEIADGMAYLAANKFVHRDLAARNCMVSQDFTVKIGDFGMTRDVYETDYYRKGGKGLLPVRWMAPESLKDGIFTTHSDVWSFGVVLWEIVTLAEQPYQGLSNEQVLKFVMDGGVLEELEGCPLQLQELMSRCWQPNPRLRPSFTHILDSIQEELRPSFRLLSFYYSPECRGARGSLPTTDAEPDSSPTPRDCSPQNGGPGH
Sequence of HIPK3(h) (human) (Q9H422 163-562 limits assumed): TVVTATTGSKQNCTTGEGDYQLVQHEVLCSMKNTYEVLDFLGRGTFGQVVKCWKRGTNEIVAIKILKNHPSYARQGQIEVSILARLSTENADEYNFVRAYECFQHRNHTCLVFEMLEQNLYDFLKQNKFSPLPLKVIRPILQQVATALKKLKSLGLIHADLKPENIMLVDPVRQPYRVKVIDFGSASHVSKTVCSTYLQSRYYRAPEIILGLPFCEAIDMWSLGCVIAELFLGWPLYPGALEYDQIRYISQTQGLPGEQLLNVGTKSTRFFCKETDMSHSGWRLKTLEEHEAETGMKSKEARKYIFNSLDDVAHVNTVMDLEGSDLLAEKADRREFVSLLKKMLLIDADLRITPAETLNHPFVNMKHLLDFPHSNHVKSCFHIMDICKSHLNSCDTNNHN
Sequence of cKit(D816V)(h) (human) (P10721 544-976 D816V): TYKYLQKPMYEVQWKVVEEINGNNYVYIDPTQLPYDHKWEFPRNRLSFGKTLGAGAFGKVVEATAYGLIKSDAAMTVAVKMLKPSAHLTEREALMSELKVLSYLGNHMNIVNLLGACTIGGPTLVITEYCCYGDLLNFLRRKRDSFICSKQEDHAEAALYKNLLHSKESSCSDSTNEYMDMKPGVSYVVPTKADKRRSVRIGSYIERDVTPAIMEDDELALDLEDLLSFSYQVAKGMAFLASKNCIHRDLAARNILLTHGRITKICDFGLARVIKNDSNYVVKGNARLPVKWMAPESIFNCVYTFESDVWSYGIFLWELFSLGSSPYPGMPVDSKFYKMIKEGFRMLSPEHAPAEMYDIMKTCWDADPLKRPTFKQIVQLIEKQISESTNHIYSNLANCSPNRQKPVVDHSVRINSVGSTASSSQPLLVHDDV
Sequence of MuSK(h) (human) (O15146 517-869 limits assumed): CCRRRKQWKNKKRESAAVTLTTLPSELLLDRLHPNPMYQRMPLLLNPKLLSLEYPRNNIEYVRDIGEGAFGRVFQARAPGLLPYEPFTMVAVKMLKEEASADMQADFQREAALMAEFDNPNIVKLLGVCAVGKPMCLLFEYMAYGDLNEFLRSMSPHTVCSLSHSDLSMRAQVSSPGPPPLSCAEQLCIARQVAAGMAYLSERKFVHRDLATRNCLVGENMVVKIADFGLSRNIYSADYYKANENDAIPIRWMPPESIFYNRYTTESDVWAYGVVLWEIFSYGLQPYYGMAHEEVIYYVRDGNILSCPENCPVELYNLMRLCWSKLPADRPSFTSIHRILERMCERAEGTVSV
Sequence of EphB2(h) (human) (P29323 565-986 limits assumed): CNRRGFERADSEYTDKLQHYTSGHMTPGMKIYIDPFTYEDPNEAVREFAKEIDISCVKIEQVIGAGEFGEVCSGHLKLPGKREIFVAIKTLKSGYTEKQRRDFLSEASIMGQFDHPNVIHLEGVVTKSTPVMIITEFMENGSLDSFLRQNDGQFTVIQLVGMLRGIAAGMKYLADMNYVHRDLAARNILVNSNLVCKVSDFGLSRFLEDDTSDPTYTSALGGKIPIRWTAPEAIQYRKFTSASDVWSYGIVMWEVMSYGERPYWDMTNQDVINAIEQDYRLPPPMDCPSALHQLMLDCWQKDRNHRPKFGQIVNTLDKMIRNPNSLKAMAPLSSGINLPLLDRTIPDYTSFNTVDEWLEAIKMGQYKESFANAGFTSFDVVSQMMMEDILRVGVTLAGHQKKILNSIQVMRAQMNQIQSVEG
Sequence of CDK9/cyclin T1(h) (human) (P50750 whole entry, chain 1 of 2): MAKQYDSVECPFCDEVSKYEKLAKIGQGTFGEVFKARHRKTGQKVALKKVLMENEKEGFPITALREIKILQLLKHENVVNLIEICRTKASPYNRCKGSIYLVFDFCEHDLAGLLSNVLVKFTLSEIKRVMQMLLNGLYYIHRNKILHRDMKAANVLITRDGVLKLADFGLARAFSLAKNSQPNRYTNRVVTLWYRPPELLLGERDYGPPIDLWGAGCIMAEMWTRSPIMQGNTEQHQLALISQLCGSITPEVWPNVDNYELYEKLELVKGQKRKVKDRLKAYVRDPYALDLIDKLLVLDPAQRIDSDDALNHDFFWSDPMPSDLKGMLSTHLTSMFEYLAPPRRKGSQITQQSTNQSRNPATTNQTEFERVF
Sequence of CDK9/cyclin T1(h) (human) (O60563 whole entry, chain 2 of 2, further chain): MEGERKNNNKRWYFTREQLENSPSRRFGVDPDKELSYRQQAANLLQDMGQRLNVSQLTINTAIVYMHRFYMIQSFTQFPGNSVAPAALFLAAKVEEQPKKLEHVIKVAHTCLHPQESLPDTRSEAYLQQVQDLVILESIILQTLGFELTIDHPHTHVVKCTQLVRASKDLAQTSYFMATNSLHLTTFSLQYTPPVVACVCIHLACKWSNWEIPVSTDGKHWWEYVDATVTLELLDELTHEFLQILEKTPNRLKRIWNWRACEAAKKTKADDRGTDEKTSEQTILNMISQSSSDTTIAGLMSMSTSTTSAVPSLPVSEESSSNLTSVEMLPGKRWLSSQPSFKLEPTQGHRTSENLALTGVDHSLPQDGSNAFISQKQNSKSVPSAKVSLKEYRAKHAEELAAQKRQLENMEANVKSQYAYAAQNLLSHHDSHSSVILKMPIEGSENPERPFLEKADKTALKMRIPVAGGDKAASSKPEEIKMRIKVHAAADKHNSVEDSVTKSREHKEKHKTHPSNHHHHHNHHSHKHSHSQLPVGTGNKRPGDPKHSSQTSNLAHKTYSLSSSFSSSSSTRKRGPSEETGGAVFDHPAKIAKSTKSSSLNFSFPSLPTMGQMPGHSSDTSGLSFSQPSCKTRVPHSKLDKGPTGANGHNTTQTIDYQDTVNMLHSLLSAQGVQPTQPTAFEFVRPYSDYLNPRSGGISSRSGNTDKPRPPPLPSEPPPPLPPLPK
Sequence of cKit(h) (human) (P10721 544-976): as the sequence (P10721 544-976 D816V) above, with V273D counted along it

As to MMI-0500 (peptide), the % activity, 100 µM with CaMKIV(h) (human) is -1%; with Flt1(h) (human), 27%; with Met(D1246H)(h) (human) it was 150%; in the experiment with GCK(h) (human), 30%; with HIPK3(h) (human), 85%; with PKGη(h) (human), 45%. Further, the % activity, 100 µM with EphB2(h) (human) is 70%; in the experiment with PKBγ(h) (human), 20%; in the experiment with PKBβ(h) (human), 21%; with PAR-1Bα(h) (human) it was 97%; with AMPKα1(h) (human), 35%; in the experiment with cKit(D816V)(h) (human), 30%. Also, the % activity, 100 µM stood at 45% in the experiment with cKit(h) (human); 38% in the experiment with HIPK2(h) (human); 31% in the experiment with Lyn(h) (human); 10% with IRR(h) (human); 6% in experiment [1]; 37% with Pim-3(h) (human). Further, the % activity, 100 µM with Met(Y1248D)(h) (human) is 218%; in the experiment with EGFR(L861Q)(h) (human) it was 15%; in the experiment with MuSK(h) (human) it was 27%; with PrKX(h) (human) it was 57%; with MSSK1(h) (human) it was 22%.
